Test results as given in paper PMC3476724 (Biochemistry, 2012).

What was measured:
[1] = target: CXCR4 mutant DNX4 (human) (UniProt P61073); assay: 12G5 antibody competition binding on cells
[2] = target: CXCR4 mutant F87A (human) (UniProt P61073); assay: 12G5 antibody competition binding on cells
[3] = target: CXCR4 mutant F292A (human) (UniProt P61073); assay: 12G5 antibody competition binding on cells
[4] = target: CXCR4 mutant Y255A (human) (UniProt P61073); assay: 12G5 antibody competition binding on cells
[5] = target: CXCR4 mutant W252A (human) (UniProt P61073); assay: 12G5 antibody competition binding on cells
[6] = target: CXCR4 mutant D171A (human) (UniProt P61073); assay: 12G5 antibody competition binding on cells
[7] = target: CXCR4 mutant Y121A (human) (UniProt P61073); assay: 12G5 antibody competition binding on cells
[8] = target: chemokine receptor CXCR4, wild type (human) (UniProt P61073); assay: 12G5 antibody competition binding on cells
[9] = target: CXCR4 mutant Y45A (human) (UniProt P61073); assay: 12G5 antibody competition binding on cells
[10] = target: CXCR4 mutant E288D (human) (UniProt P61073); assay: 12G5 antibody competition binding on cells
[11] = target: CXCR4 (Homo sapiens, UniProt P61073); assay: Intracellular calcium mobilization in Sup T1 cells; assay type: cell-based; settings: 50 nM, Sup T1 cells expressing CXCR4, fura-2; representative of at least three independent experiments

Question: How did the increase of % bound 12G5 against wild-type CXCR4 [1] turn out when DV1 dimer (peptide) was run?
Answer: 15%

Question: What about the decrease of binding against wild-type CXCR4 [2] of the same substance?
Answer: 40%

Question: And the decrease of binding against wild-type CXCR4 [3]?
Answer: 20%

Question: What about the decrease of binding against wild-type CXCR4 [4] of the same substance?
Answer: 20%

Question: And the decrease of binding against wild-type CXCR4 [5]?
Answer: 20%

Question: And the decrease of binding against wild-type CXCR4 [6]?
Answer: 60%

Question: And the decrease of binding against wild-type CXCR4 [7]?
Answer: 20%

Question: And the IC50 [8]?
Answer: 3 nM

Question: And the decrease of binding against wild-type CXCR4 [9]?
Answer: 20%

Question: And the decrease of binding against wild-type CXCR4 [10]?
Answer: 40%

Question: Which “Mobilization of calcium (Ca2+)” value [11] does the source give for stromal cell-derived factor-1α [SDF-1α] here?
Answer: rapid Ca^2+ mobilization
